6 sequences from the DeepSol protein solubility set can be followed below.

This series in a line: soluble on expression in E. coli; label from the status in PepcDB or PDB records.
“MGSDKIHHHHHHMEVDDVWDDTELIKMYDESLQEISKNETSAKITSRKFKGEDGKMYTWKVGGKCMAPYEENGEVTDYPATIDTIGGADNLEVGVTFIYYGGQAVVQMKDLWLNEEAIADAVKAENDLQKTKKTSTVNSVAHSNSKSTSSAPNTSMPFPSFAPPVPPNIIAMAPVNQKEAMNSMLMSWYMSGYHTGYYQALADQKNVQN”: the “soluble on expression in E. coli” value is on record as “not soluble”. With “MGSDKIHHHHHHLKPNNNTNKGVDYWTNRISELEMPALCSTVKSLEKLAKDDVSSLALLGRSVMHDNALTSRILRVANSAIYHKGSSQISTVSRAAIVLGFDAVRNICITAKLLSSLLESKNLAPNVYQRLIKLMAKAFQAAMIARMMLSHHDEEMQEEAFIASLLYHIGESAFWSIGGEFTEELDLTLCQCETPAEERSATREALGASFLQLTQSIARNWGLGELLIQALNYPEDQRPDIRAIFLADKLCDILSQPVLDKLELAKRMTQAAIFTGLEEKEFLVRMQRCANATHKLAEVYGAKVLLDYLPDPKRIVAAEPDLPPIPLDMPVYQVNLNIQLAKLRELTGFAINKADFNQIMQTVLEGILEGVGVDRCGVLLLSPSRKQLQPRVILGRDADAIKQEFIIDLSDKRGLFHQAMEHKAPLWVDDPSSKNGRSSARSCKRGTCHGRAFYWRLCWLIAK” the entry was “not soluble”; with “GPGSMAHSLTWKLLSPEQTHECLTAPDVPSIRSVLKKIDEACDGKLIGAAKYNEGKVMIVLDMLAHLILFCKSRSMSPEKVSTLVGIVIKIHEESMSGGYTRAKSYHLMRDLMIKHSVPRPPFSCGVFTVRDAQEIDEYMLRSYYRHYKMYFYAFVPRQVMNVRCLDVTHIHQVPPVGLPSLSTAVVESEWRTKVEEQRREAEEQAMQEGEIASDAYEEERMRNRLLADPHYSDGIREQLECIKKEVSSKAVGRLDEIEMRLQEIEKKVAESFARSDSKQGRRKK”, “soluble”; with “MSLALVAEKLSEQWRAELDSRGLDAAPMADWMTVCRRLSLALAGTGLSLEEIRSLQRLPEADRVETHRERLLNSERFHHYWAERTARYLVGADEGPFIFYRGRRFRSWLTEQYAKNTRYDELVRMLITAEGVWTDRPEVNFHTVTFDSGDNAPDPIRLAARTTRAFLGVRIDCLQCHDDFLGNVSLGDASWIMCGVGDATMQAAAEGDAKYVLREGTQEDFHSLAAFFTAATSEGVQGLKDKRANYEYQYLYADETVPVEPNVPFLRELLPPRPENRQDDSSDDDSTDTTDESASDEPSDAPEPLELPRYLSDRERLAYWLTHTENKPAARAAVTRVWTLLFGQPPAIETDYGFQVGEVDNLPLDSPPSPLIETLTEAFIESDFNIRKLIRCITDSPAFRVSSRADFDVTEQHELAMAVFPVTHLRSEQVAGAAIQAGRIKTINRDSSFLVQLQQFGSLNDFLKRYGDLGEDEFTQQPVTITQRLVMLNGKLINETASPNPILNASSHIEMFAKDDEDVVRTLYLTVLNREPSERELEHFVKRLTAESREQNDPPTSRKQEITDLTWILLNSSEFAWNHEGHHHHHH”, “not soluble”.

With “MASLLFRQARVFDGESVHTDYDVLVVDGKIAQLGSAIEAPADAEIIEAHGKTLLPGLIDSHTHAKPPALEMALTFGVTTELDMFSDPAWMTEQRREAQTRNSMADVRSAMTGASVAGGHPTGLVGVVFDKQCPVLENAEDAEAFVAARVAEGADYFKLVIEDGTILGHEVPRLSDEMVYALVAAAHAQGLMAVAHAMTVELALLAIRAGVDGLMHVAGDRLMTDEEVAEVAQSGIFVVPTLSTMASVYGDKHGQHLAEDDRTRPLLSDAWAENLCQCWHLTNPGSTANVIDATRRLYEAGVDVLAGSDAVTVGVPGTAHGVSMHGELELLVDCGLSPAAALRAATLLPAKRFSLDDRGRIAPGLQADLVLVDGDPTTDVRQTLSIEGVWRRGEQAPRIGQAEGVGTASAASAVAG”, the “soluble on expression in E. coli” value is given as “soluble”.

In the case of “MMLAGCGPIEPDYPNNKYTLTWYCTSDDGTCERVVELRRYDRASIQNNDLTIWDSQDPGGAIEALIVYSDSLPQHCDRIFYLVFFGHEIEEPRYCGNHYAFEIELSIPDEDPATSSRWVISAAPLD”, the “soluble on expression in E. coli” value was “not soluble”.
